{
  "source": "patent US20150079071A1",
  "about": "(University of California, published 2015)",
  "key": {"[1]": {"target": "T1, heat-shock protein 90β (HSP90β), endogenous, in conditioned medium of SCp2 cells (mouse, UniProt P11499 2-724)", "T1 construct": "also called HSP90b; extracellular HSP90β", "T1 sequence (P11499 2-724 limits assumed)": "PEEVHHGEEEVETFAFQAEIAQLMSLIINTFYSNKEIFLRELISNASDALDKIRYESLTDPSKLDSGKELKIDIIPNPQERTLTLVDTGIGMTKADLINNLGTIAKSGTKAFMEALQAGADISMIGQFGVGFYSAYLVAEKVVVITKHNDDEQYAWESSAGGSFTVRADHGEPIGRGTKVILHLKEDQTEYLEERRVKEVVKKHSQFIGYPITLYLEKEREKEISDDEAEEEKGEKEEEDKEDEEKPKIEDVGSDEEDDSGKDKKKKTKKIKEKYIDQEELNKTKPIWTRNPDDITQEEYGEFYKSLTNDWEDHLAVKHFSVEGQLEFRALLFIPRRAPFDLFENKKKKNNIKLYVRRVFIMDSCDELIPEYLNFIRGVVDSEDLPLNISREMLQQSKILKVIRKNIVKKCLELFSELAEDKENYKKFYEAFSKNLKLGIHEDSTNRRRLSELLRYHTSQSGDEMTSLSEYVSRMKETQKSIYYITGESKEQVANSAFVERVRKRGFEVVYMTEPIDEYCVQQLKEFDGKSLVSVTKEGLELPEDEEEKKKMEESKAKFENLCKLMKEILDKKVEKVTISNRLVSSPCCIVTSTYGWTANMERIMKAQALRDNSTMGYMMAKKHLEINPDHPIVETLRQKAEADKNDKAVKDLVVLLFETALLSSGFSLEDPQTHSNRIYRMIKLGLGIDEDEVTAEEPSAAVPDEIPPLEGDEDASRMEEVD", "test": "reverse co-IP of HSP90β protein complexes from CM of control SCp2 cells, Western blot", "experimental": "For co-IP of HSP90β protein complexes, CM was incubated with 10 μg of control rabbit IgG or anti-HSP90β antibody for 16 h at 4° C. Precipitation was performed with protein G sepharose beads (17-0618-01, GE Healthcare) for 4 h at 4° C. The beads were then washed three times with 0.05% Tween/PBS, and the immune complexes were directly eluted with electrophoresis sample buffer and analyzed by Western blotting."}, "[2]": {"target": "T2, Itgb1 (endogenous mouse integrin-beta1 of EpH4 mammary epithelial cells) (mouse, UniProt P09055 21-798)", "T2 construct": "Endogenous protein in EpH4 cell lysate; also called integrin-β1", "T2 sequence (P09055 21-798 limits assumed)": "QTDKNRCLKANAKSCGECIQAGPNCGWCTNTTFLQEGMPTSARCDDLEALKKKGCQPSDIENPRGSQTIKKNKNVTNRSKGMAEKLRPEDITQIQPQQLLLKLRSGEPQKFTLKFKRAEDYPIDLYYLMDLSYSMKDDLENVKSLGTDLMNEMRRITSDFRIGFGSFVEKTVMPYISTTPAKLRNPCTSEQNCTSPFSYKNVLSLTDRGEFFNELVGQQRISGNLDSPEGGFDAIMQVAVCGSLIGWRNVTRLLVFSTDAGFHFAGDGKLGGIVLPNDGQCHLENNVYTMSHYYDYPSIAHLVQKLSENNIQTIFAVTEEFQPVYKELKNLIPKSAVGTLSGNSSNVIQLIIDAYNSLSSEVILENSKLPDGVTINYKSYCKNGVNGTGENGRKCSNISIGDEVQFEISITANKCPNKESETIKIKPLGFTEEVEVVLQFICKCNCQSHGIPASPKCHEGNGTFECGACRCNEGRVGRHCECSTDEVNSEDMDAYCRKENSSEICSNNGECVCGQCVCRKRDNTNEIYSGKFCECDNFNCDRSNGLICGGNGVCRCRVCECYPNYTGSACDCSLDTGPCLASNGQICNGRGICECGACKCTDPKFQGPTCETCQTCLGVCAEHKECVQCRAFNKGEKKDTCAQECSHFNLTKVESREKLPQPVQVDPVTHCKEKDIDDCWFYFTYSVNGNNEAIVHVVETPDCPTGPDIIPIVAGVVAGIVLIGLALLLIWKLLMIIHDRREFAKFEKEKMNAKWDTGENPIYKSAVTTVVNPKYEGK", "test": "anti-FLAG M2 bead IP from EpH4 lysate, Western blot for Itgb1", "source_text": "FIG. 14. […] The heat map indicator is presented to show the intensity of the FRET signal. (iv) Quantification of FRET signals. ˜200 FRET signals were quantified on each condition. Data are mean+/−S.E., (****) indicates p<0.001. […] Immuno-complexes are used for IP-WB analysis."}},
  "data": [
    {"binder": "annexin A2 (ANXA2), endogenous, in conditioned medium of SCp2 cells (other, mouse, UniProt P07356 2-339, looked up) STVHEILCKLSLEGDHSTPPSAYGSVKPYTNFDAERDALNIETAVKTKGVDEVTIVNILTNRSNVQRQDIAFAYQRRTKKELPSALKSALSGHLETVILGLLKTPAQYDASELKASMKGLGTDEDSLIEIICSRTNQELQEINRVYKEMYKTDLEKDIISDTSGDFRKLMVALAKGRRAEDGSVIDYELIDQDARELYDAGVKRKGTDVPKWISIMTERSVCHLQKVFERYKSYSPYDMLESIKKEVKGDLENAFLNLVQCIQNKPLYFADRLYDSMKGKGTRDKVLIRIMVSRSEVDMLKIRSEFKRKYGKSLYYYIQQDTKGDYQKALLYLCGGDD", "values": [
      {"measurement": "binding result", "setting": "[1]", "value": "no binding"}
    ]},
    {"binder": "MMP14F-dCAT (FLAG tagged human MMP14, catalytic domain deleted mutant, deletion of Tyr112-Pro312) (enzyme, also called MMP14dCAT; not shown: FLAG tag) not shown", "values": [
      {"measurement": "binding result", "setting": "[2]", "value": "no binding"}
    ]},
    {"binder": "myristoylated alanine-rich C-kinase substrate (MARCKS), endogenous, in conditioned medium of SCp2 cells (other, mouse, UniProt P26645 2-309, looked up) GAQFSKTAAKGEATAERPGEAAVASSPSKANGQENGHVKVNGDASPAAAEPGAKEELQANGSAPAADKEEPASGSAATPAAAEKDEAAAATEPGAGAADKEAAEAEPAEPSSPAAEAEGASASSTSSPKAEDGAAPSPSSETPKKKKKRFSFKKSFKLSGFSFKKSKKESGEGAEAEGATAEGAKDEAAAAAGGEGAAAPGEQAGGAGAEGAAGGEPREAEAAEPEQPEQPEQPAAEEPQAEEQSEAAGEKAEEPAPGATAGDASSAAGPEQEAPAATDEAAASAAPAASPEPQPECSPEAPPAPTAE", "values": [
      {"measurement": "binding result", "setting": "[1]", "value": "no binding"}
    ]}
  ]
}
